Experimental data reported in EP0363874A1, “Enzymes bound to a polymer matrix in water-soluble form” (Etablissement TEXCONTOR, priority 1988, dated 1990).

B1: DAS.2: papain grafted onto starch polyaldehyde (DAS) of aldehyde titre 5.8 x 10⁻³ meq CHO/mg and reduced with sodium borohydride (conjugate, UniProt P00784 134-345, looked up)
Papain: IPEYVDWRQKGAVTPVKNQGSCGSCWAFSAVVTIEGIIKIRTGNLNEYSEQELLDCDRRSYGCNGGYPWSALQLVAQYGIHYRNTYPYEGVQRYCRSREKGPYAAKTDGVRQVQPYNEGALLYSIANQPVSVVLEAAGKDFQLYRGGIFVGPCGNKVDHAVAAVGYGPNYILIKNSWGTGWGENGYIRIKRGTGNSYGVCGLYTSSFYPVKN
modifications: grafted onto starch polyaldehyde, borohydride-reduced
notes: papain grafted onto starch polyaldehyde (DAS) of aldehyde titre 5.8 x 10⁻³ meq CHO/mg and reduced with sodium borohydride
B2: DAS.1: papain grafted onto starch polyaldehyde (DAS) of aldehyde titre 3.16 x 10⁻³ meq CHO/mg and reduced with sodium borohydride (conjugate, UniProt P00784 134-345, looked up)
Papain: B1 Papain
modifications: grafted onto starch polyaldehyde, borohydride-reduced
notes: papain grafted onto starch polyaldehyde (DAS) of aldehyde titre 3.16 x 10⁻³ meq CHO/mg and reduced with sodium borohydride
B3: DAS.4: papain grafted onto starch polyaldehyde (DAS) of aldehyde titre 4.68 x 10⁻³ meq CHO/mg and reduced with sodium borohydride (conjugate, UniProt P00784 134-345, looked up)
Papain: B1 Papain
modifications: grafted onto starch polyaldehyde, borohydride-reduced
notes: papain grafted onto starch polyaldehyde (DAS) of aldehyde titre 4.68 x 10⁻³ meq CHO/mg and reduced with sodium borohydride
B4: DAS.3: papain grafted onto starch polyaldehyde (DAS) of aldehyde titre 8 x 10⁻³ meq CHO/mg and reduced with sodium borohydride (conjugate, UniProt P00784 134-345, looked up)
Papain: B1 Papain
modifications: grafted onto starch polyaldehyde, borohydride-reduced
notes: papain grafted onto starch polyaldehyde (DAS) of aldehyde titre 8 x 10⁻³ meq CHO/mg and reduced with sodium borohydride

Experiments:
[1] = Stability in aqueous solution (retention of enzyme activity); format: physicochemical
[2] = Proteolytic activity of papain grafted onto DAS, American Pharmacopeia method (USP XXI); format: biochemical; conditions: papain grafted onto DAS preparations of variable aldehyde titre
Method: (§1) The proteolytic activity of the product of Example 1 was determined by the American Pharmacopeia method (USP XXI). Various DAS preparations of variable aldehyde titre were used, obtained by varying the reaction times, in order to establish a comparison between the aldehyde titre, the solubility of the enzymatic preparation and the activity of this latter.

[3] = Stability in solid state (retention of enzyme activity); format: physicochemical
[4] = Release of enzyme from the polymer matrix; format: physicochemical; conditions: aqueous solution
[5] = Water solubility of the supported enzyme; format: physicochemical; conditions: for WATER SOLUBILITY: papain grafted onto DAS preparations of variable aldehyde titre
Method: as §1

Row | Molecule | time for which the activity is maintained [1] | µg OF ACTIVE PAPAIN per 100 mg POLYMER [2] [µg per 100 mg POLYMER] | time for which the activity is maintained [3] | time without release of enzyme [4] | water-solubility ([5]; lyophilized product) | WATER SOLUBILITY [5]
1 | B1 | at least six months | 900 | at least two years | at least six months | good water-solubility | YES
2 | B2 | – | 800 | – | – | – | MICELLE
3 | B3 | – | 500 | – | – | – | YES
4 | B4 | – | 200 | – | – | – | YES
